Data as given in patent publication US20080166293A1.

Target: human transferrin receptor (hTfR) (human) (UniProt P02786)
Test: Scatchard analysis, 125I-labelled protein (tyrosine of the peptide iodinated) on CEF+hTfR cells on ice

Chain of human transferrin receptor (hTfR) (human) (P02786 whole entry): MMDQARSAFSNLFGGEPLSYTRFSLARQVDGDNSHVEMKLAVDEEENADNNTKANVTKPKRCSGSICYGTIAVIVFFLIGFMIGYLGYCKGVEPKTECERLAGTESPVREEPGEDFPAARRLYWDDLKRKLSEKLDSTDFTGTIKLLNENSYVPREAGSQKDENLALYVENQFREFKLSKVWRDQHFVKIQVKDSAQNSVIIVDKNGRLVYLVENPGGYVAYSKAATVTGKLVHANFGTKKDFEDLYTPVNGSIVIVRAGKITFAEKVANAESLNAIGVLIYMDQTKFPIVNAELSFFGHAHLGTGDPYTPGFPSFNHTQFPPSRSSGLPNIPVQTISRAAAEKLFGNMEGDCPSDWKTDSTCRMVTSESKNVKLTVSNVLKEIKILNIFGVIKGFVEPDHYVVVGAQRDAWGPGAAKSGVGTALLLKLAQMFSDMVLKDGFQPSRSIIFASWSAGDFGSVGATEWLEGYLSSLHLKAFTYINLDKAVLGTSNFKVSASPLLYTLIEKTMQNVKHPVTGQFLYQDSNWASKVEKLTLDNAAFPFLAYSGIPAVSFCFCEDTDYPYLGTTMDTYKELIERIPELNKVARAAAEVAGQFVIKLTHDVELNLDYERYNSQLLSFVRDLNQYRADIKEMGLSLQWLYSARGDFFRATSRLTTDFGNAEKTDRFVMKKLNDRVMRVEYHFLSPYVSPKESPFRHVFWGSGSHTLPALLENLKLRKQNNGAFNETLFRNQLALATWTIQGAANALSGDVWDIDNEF

Kd: 360 µM
Substance: GFP-HAIYPRH (Seq. ID No. 1)
